# Results from patent US20210284746A1 (NGM BIOPHARMACEUTICALS, published 2021).
# Residue numbers refer to the chain shown, from its start.
# B1: 6B5 (antibody, V domains shown)
# VH: QVQLQQSGTELVRPGTSVKISCKASGFTFTNHWLGWVKQRPGHGLEWIGDIYPGGYYINYNEKFKGKATLTADTSSSTAYMQLSSLTSEDSAVYFCARHTNYGSDYWGQGTTLTVSS
# VL: DVLMTQIPLSLPVSLGDQASISCRSSQSIVDSYGNTFLEWYLQKPGQSPKLLIYKVSNRLSGVPDRFSGTGAGTDFTLKISRVEAEDLGIYYCFQGSHVPWTFGGGTKLEIK
# notes: Mouse hybridoma antibody, purified; also called anti-GCGR antibody 6B5
# B2: 14F4 (antibody, V domains shown)
# VH: QVQLQQSGAELVRPGTSVNMSCKATGYTFTNYWIGWVKQRPGHGLEWIGDIFPGGFYSNYNEKFKGKATLTTDTSSSTGYMQLSSLTSEDSAIYYCARIWDRGFDYWGQGTTLTVSS
# VL: B1 VL with I7S, F37Y, L60F, T70S, A72S, L88R, I90L, W101Y
# notes: Mouse hybridoma antibody, purified; also called anti-GCGR antibody 14F4
# B3: 13G9 (antibody, V domains shown)
# VH: QVQLQQSGAELVRPGTSVKISCKASGYTFTNYWLGWVKQRPGHGLEWIGDIYPGGDYNNYNGKFKGKATLTADTSSSTAYIQLSSLTSEDSAVYFCVRSDDGYSWGQGTTLTVSS
# VL: DVLMTQTPLSLPVSLGDQASISCRSSQSIVDSYGNTYLEWYQQKPGQSPTLLIYKVSNRFAGVPDRFSGSGSGTDFTLKISRVEAEDLGVYYCFQGSHIPWTFGGGTKVEIK
# notes: Mouse hybridoma antibody, purified; also called anti-GCGR antibody 13G9
# Molecular target: T1, soluble human GCGR extracellular domain (human, UniProt P47871 26-136, limits assumed)
# T1 construct: also called soluble GCGR; glucagon receptor extracellular domain
# T1 sequence (P47871 26-136 limits assumed): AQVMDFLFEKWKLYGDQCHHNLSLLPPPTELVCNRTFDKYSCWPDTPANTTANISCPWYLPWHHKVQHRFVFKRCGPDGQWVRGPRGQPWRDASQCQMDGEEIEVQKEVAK
# Test: SPR (Biacore), purified antibody re-tested; format as described for the screen: antibody captured by anti-mouse Fc, soluble human GCGR extracellular domain as analyte, 25 C
# Method: In addition, supernatants were screened for binding to human GCGR using a Biacore SPR system. Briefly, anti-mouse Fc antibody (Sigma-Aldrich) was immobilized on all four flow cells of a CM5 chip using amine coupling reagents (GE Healthcare LifeSciences). Hybridoma supernatants were diluted three-fold with PBS-P buffer (PBS containing 0.005% P20-PBS-P) and injected for 30 seconds over flow cells 2, 3 and 4 to capture the test antibodies and using flow cell 1 as a reference. The next step was an injection of soluble human GCGR extracellular domain (100 nM in PBS-P buffer) at a flow rate of 50 μL/min and monitoring of the binding kinetics at 25° C. Kinetic data were collected over time and fit using the simultaneous global fit equation to yield affinity constants (KD values) for each antibody.
row,Binder,Kd [pM]
1,B1,200
2,B2,600
3,B3,200
